Assay results: the supplement of paper PMC12764529
± gives the half width of the 95% confidence interval.

Assays:
[1] = folding stability dG unfold from trypsin proteolysis; higher = more stable
In short: (§1)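 Designed mini-proteins (under 80 residues, no cysteine) in a PA-tagged cDNA display construct were digested with trypsin and chymotrypsin. Each protease was used at 11 concentrations (threefold dilutions) plus a no-protease condition, followed by sequencing. K50 was inferred by Bayesian fitting of sequencing counts, and unfolding free energy was derived against a sequence-predicted unfolded-state K50 and a shared folded-state K50, per protease or combined. Only designs with AlphaFold2 dimer inter-PAE above 15 were kept.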

[2] = folding stability dG unfold from chymotrypsin proteolysis; higher = more stable
In short: as §1

[3] = folding stability dG unfold (combined trypsin and chymotrypsin); higher = more stable
In short: as §1

Sequence | folding stability dG unfold [1] | folding stability dG unfold [2] | folding stability dG unfold [3]
SMSLVVSEEVDPATGTTTVTTTFPSPGVTVTATASAAGDSVTTTVTTTSPAPSAPTTTTTTTPVAPPGTDAS [r1_404_JUSTAS] | 1.55 ± 0.067 kcal/mol | -0.3 ± 0.077 kcal/mol | 0.806 ± 0.087 kcal/mol
SAGGSAKEVKIKFTRNPDGTLTMEITFEDGYVIRKTFTVKNGKLTEKVEVFPVKLDPETGKLVLLPSAGGSA [r15_746_TrROS_Hall] | 2.52 ± 0.078 kcal/mol | 2.98 ± 0.033 kcal/mol | 2.84 ± 0.087 kcal/mol
SAGGSANFNVKLEIKIIERNPGNPDYVIVRIKVEHRHPNPDGNPMEHRRPIPWIMITDPEEIKEFISAGGSA [r15_1019_TrROS] | 2.32 ± 0.12 kcal/mol | 2.39 ± 0.029 kcal/mol | 2.36 ± 0.084 kcal/mol
SAGGSAGGSAGGGMIPVSTSETVVPGPSRLVRRTTTTYRDPVTGKLYTTSSTTVLPPAASAGGSAGGSAGGS [r10_190_JUSTAS] | -0.396 ± 0.12 kcal/mol | 1.44 ± 0.064 kcal/mol | 0.963 ± 0.045 kcal/mol
SAGGSAGGSAAVPVSETPLGTLPDGRRVRLRRYRDPDGNLYTFLEVEPLPRPLSPADLEKAAASAGGSAGGS [r12_775_TrMRF] | 0.492 ± 0.19 kcal/mol | 2.06 ± 0.12 kcal/mol | 1.68 ± 0.1 kcal/mol
SAGGASFSLSEGYDPSLGKTFTRETEAPEVPVPPVTVVPLSEIGRLKAEGVPPSWTVDPETGTVTVTSAGGS [r16_194_JUSTAS] | -0.647 ± 0.19 kcal/mol | 0.564 ± 0.072 kcal/mol | 0.258 ± 0.059 kcal/mol
SAGGSAGGSAGGKPNEVRVANIPIYRRLENGGWELIRPLPIVVPVDASVDFVLDAFKKYSAGGSAGGSAGGS [r10_470_TrMRF] | 0.392 ± 0.041 kcal/mol | 0.815 ± 0.076 kcal/mol | 0.658 ± 0.048 kcal/mol
SAGGATFAPGQTITVTVTVTLADGSTVTVTATVRIEVRAAPAPPVTVTNADGSTRTFTSAEEARAAASAGGS [r16_580_TrROS_Hall] | 1.46 ± 0.033 kcal/mol | 0.211 ± 0.25 kcal/mol | 1.01 ± 0.098 kcal/mol
SAGGDEDDWRPIEIPLYIRNPENGHLFQITPMKIWVPDNLTIEMEMEMFDPDDGKVEKHKMTFTIPAKSAGG [r13_206_TrROS] | 1.2 ± 0.088 kcal/mol | 2.09 ± 0.21 kcal/mol | 1.64 ± 0.22 kcal/mol
SMSVVVPPDEGLTVTLTTLPGGTIEIHVGDTVLTRDVAPGETLTVTVPPDRTGNTVTVVGPGGVVVTSSGSA [r9_143_JUSTAS] | 1.18 ± 0.048 kcal/mol | 0.71 ± 0.024 kcal/mol | 0.95 ± 0.044 kcal/mol
SAGGSAPVVEYEFVDPGNGRKVKIEVYPHPDGNYQMSIEVYDPGKPVEKIPFWMPPGEMPIEDLLKSAGGSA [r15_147_TrROS] | 0.528 ± 0.059 kcal/mol | 0.565 ± 0.24 kcal/mol | 0.565 ± 0.13 kcal/mol
SAGGSAGGSAGGSFEVVSVDETVTVPPGATVTIVVRDENGKLLTFTFEVRLVPPPPEEESAGGSAGGSAGGS [r10_573_TrROS_Hall] | 1.58 ± 0.1 kcal/mol | 1.95 ± 0.072 kcal/mol | 1.86 ± 0.18 kcal/mol
SAGGSAGGSAMWVIRIWFPNGNKRTIPIPPNEKLTAEEILDEFRIPNGREMRILRVEIWPYSAGGSAGGSAG [r3_465_TrROS] | 1.967 ± 0.011 kcal/mol | 2.66 ± 0.034 kcal/mol | 2.43 ± 0.042 kcal/mol
SAGGMGRARLYELEIEVDLHPDETIEGALRRLLGLREDEEILEVEAEVDPVNGKVRIRAVVLVRDPETSAGG [r13_828_TrMRF] | 2.47 ± 0.087 kcal/mol | 4.22 ± 0.032 kcal/mol | 3.85 ± 0.081 kcal/mol
SAGGSAGGSAGPLKIKKLELRKLPDGFVEMTAEFEGPENYTVRLIVRKDDPNKLVLEVFPSAGGSAGGSAGG [r11_618_TrROS_Hall] | 2.07 ± 0.095 kcal/mol | 2.98 ± 0.057 kcal/mol | 2.69 ± 0.16 kcal/mol
SAVVSVDPATGVVTAKVKVDDTELTVTITRDPATGAWPVTFTPPGSGTPVVLDVPFTSVEEAIELAKRLSAG [r14_803_JUSTAS] | 1.54 ± 0.02 kcal/mol | 1.56 ± 0.036 kcal/mol | 1.59 ± 0.05 kcal/mol
SAKLTLEIEVNGKKYKAEITSVDEETGTVTIKVTFPDGSTQTLTLTFPPAPPPKVEKVYVVDKDGKLLKSAG [r14_466_TrROS_Hall] | 0.644 ± 0.025 kcal/mol | 1.83 ± 0.089 kcal/mol | 1.45 ± 0.12 kcal/mol
SMVRITVYRNGKELSEEELRELAAELERETGRRITVEELARRLAARPGLTVRIEVFNEDGELVEERELRVSA [r9_1045_TrROS_Hall] | 3.42 ± 0.058 kcal/mol | 5.14 ± 0.11 kcal/mol | 4.71 ± 0.076 kcal/mol
SAGGSAGGSAMKILSVTEEVLPNGTRVVRVTVKLPTPKTREIVVSPEVVEAGRLDEVVEELLSAGGSAGGSA [r18_129_JUSTAS] | 1.38 ± 0.033 kcal/mol | 1.82 ± 0.031 kcal/mol | 1.66 ± 0.062 kcal/mol
SAGMKITYKRPDGTPAEPIPEEEIKKLAEEKAKELYPNKPDATVTVTITIKTNNNEPLIITMTVTIKNESAG [r5_526_JUSTAS] | 0.982 ± 0.054 kcal/mol | 1.13 ± 0.18 kcal/mol | 1 ± 0.38 kcal/mol
SAGGSAGGDKKGKPKPQWVTIMFKVPDDDLPPEEIAKEFPGVKIERSPGMYMITVPVNGKWIPFSAGGSAGG [r6_739_TrROS] | 1.02 ± 0.039 kcal/mol | 1.25 ± 0.14 kcal/mol | 1.13 ± 0.093 kcal/mol
